pKd: −log10 of the molar value. Like-named read-outs stand apart in the source and are kept apart here.

Test [1] deals with neutralizing antibody CR3022.
For test [2], the target named is neutralizing antibody CR3022. This is another data set of the same source.
In test [3] the target is neutralizing antibody CR3022. This is another data set of the same source.

One may read the pKd as −log10 of the Kd, conventionally taken in molar units. Turning to “mInCV02R (SARS CoV-2 RBD N-1) having EIS at the N-terminal (from UniProt P0DTC2 332-532) (ligand)”, the figures for the negative-log Kd (pKd) in test [1], in test [2] and in test [3] were 7.80, over 9.00 and 7.78, respectively.

The values above are taken from US20240262869A1.
